The nanobody polyreactivity screen of Harvey et al. (2022)

Assay: yeast display, Sf9 membrane polyspecificity reagent, FACS + sequencing; frameworks hold sequencing errors
Outline: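 Genes from sorted yeast were amplified by colony PCR, read by MiSeq 2 × 250 sequencing and filtered on CDR length. These cells carried a synthetic nanobody library in Saccharomyces cerevisiae BJ5465 and were sorted by FACS into low and high (top ~1%) gates on anti-HA and streptavidin fluorescence. Polyreactivity is labelled according to the gate of origin.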

Sequence	polyreactivity (PSR sort gate)
QVQLQESGGGLEQEGGSLRLSCAASGNISPPADMGWYRQAAGKERELVASIGTGGTTNYADSVKGRFNISRDNAKNTVYLQMNSLKPDDTSVYYCAAVRYEYNPYDYLGQGTQVTVSS	low polyreactivity
QVQLVESGGGLVQAGGSLRLSCAPSGRTFGYYGMGWYRQEPGKERELVASINFSSGSTFYADSVKGRFSISRDNAKNTVYLQMNSLKPEDTAVYYCAARAKAVRSYAYNYWGQGTQVTVSS	low polyreactivity
QVQLVESGVGLVQAGGSLSLSCAASGSTFYKYTMGWYRQAPGKESELVAAISGSGTTTYYADSVKGRFTISRDYAKNTVFLQINSLKPEDTAVYYCAAETYSPDREYGYWGLGTQVTVSS	high polyreactivity
QVQVVESGGGLVQAGGRLRLSFAASGFTFESYAMGWYRQAPGKERELVPAISDGGGDTYYADSVKGRFTISRDNAKNTVYLQMNSLKPEDTAVYYCAAEWDGNWSRCAGGYDYWGQGTQVTVSS	low polyreactivity
QVHLVESGGGLVQAGGSLRLICAASGYIFQRNAMGWYRQAPGKEREFVAAITRSGGTTYYADSVKGRFTISRDNAKNTVYLQMNSLKPEDTAGYYCNAPRSDRSVYHYHYWGQGTQVTVSS	low polyreactivity
QVQLVESGGGLVQAGGSLRLSCAASGSTLWGYAMGWYRPAPGKERELVAAITSSGGITYYADSVKGRFTISRDNAKNTVYLQMNSLKPEDTAVYYCAVDYYVVGWTYLYYYRGQGTQVTVSS	low polyreactivity
QVQLVESGGGLVQAGGSLRLSCAASGFILLYYAMGWYRQAPVKERELVATITWSDGSTYYADSVKGRFTISRDNAKNTVYLQMNSLKPEDTAVYYCASPYKRYFYKGGDYWGQGTQVTVSS	low polyreactivity
QVQLVESGGGLVHAGGSLRLSCAASGSTFKIYAMGLYRQAPGKERELVASIRGRGGSTYYADSVKGRFTISRDNAKNTVYLQMNSLKPEDTAVYYCNATYGHRYPACISYDYWGQGTQGTVSS	high polyreactivity
QVQHVDSGGGIVQAGGSLRLSCAPSGRTILRYTMGWYRHAPGKERELVASITRGGSSYYADSVKGRFTISRDNAKNTVYLQMNSLKPEDTAVYYCAARRYYGVYYAFYYWGQGTQVTVSS	high polyreactivity
QVQLVESGGGLVQAGGSLRLSCAASGIIFDINAMGWYRQAPGKERELVAAITTSVDSTYYADSVKGRFTISRDNAKNTVYLQMNSLKPEDTAVYYCAVAFVQFTQYDYWGQGTQVTVSS	low polyreactivity
QVQLVESGGGLVQAGGSLRLSCAASGRTFKTYAMGWYRQAPGKERELVAAITRRGGSTYYADSVKGRFTISSDNAKNTVYLQMNRLKPEDTAVYYCAAGFYFLSLFSGRMDYWGQGTQVTVSS	high polyreactivity
QVQLVESGGGLVQAGGSLRLSCAASGRIFENNAMGWYRQAPGKERELVAAITSSGGRTYYADSVKGRFTISRDNAKNTVYLQMNSLIPEDTAVYYCNAYQYYERYDTYLFRYDYWGQGTQVTVSS	low polyreactivity
QVQLVESGGGLVQAGGSLRLSCAASGFTFQGYVMGWYRQAPGKERELVARITNDGSTTYADSVKGRFTISRDNAKNTVYLQMNSLKPEDTAVYYCDRPYRFWRYYGMYYWGQGTQVTVSS	high polyreactivity
QVQLVESGGGLVQAGGSLRLSCAASGLTFGDYAMGWYRQAPGKEWELVAVITSSGSTYYADSVKGRFTISRDNAKNTVYLQMNSLKPEDTAVYYCATSAPAYRWRERYYYWGQGTQVTVSS	high polyreactivity
QVQLVESGGGLFQAGGSLRLSCAASGFTFDYYAMGWYRPAPGKERELVAAISRAGSTNYADSVKGRFTISRDNAKNTVYLQMNSLKPEDTAVYYCNKGYHSWSRLSQFGWSYDYWGQGTQVTVSS	high polyreactivity
QVQLVESGGGLVQAGGSLRLSCAASGSTFNKYAMGWYRPAPGKERELVAVITKRGGSTYYADSVKGRFTISRDNAKNTVYLQMNSLKPEDTAVYYCAASSLYYGYDYWGQGTQVTVSS	high polyreactivity
QVQLVESGGGLVQAGGSLRLSCAASGRTFFSYAMGWYRQAPGKEMELVAAISGSGGSTYYADSVKGRFTISRDNAKNTVYLQMNSLKPEDTAVYYCNAYQTTRGLDYWGQGTQVTVSS	low polyreactivity
QVQLVESGGGLVQAGGSLRLSCAASGFTFIDYAMGWYRQAPGKERALVAAITSRGGSTYYADSVKGRFTISRDNAKNTVYLQMNSLKPEDTAVYYCNAGSSFWYAYEYWGQGTQVTVSS	high polyreactivity
QVQLVESGGGLVQAGGSLRLSCAASGRTFIVYAMGWYRQAPGKERELVAGITRGSTNYADSVKGRFTISRDNAKNTVYLQMNSLKPEDTAVYYCAARSSRRGPISEGDYWGQGTQVTVSS	high polyreactivity
QVQLVESGGGLVQAGGSLRLSCAASGNTFYYYAMGWYRQAPGKERELVAAIRRSGGTTYYADSVKGRFTISRDNAKNTVYLQMNSLKPEDTAVYYCAARVYRSYANVEGNYWGQGTQVTVSS	high polyreactivity
QVQLVESGGGLVQAGGSLRLSSAASGSIFSTNEMGCYRQAPGKERELVAAISVSGGSTYYADSVKGRFTISRDNAKNTVYLQMNSLKPEDTALYYCNADYTRGTMYYWGQGTQVTVSS	low polyreactivity
QVQLVESGGGLVQAGGSLRLSCAASGSIFGYYTMGWYRKAPGKERELVAAITSGGSTNYADSVKGRFTISRDNAKNTVYLQMNSLKPEDTAVYYCAKVSYYPWRYDYWGQGTQVTVSS	low polyreactivity

Sequence	polyreactivity (PSR sort gate)
QVQLVESGGGLVQAGGSLRISCAASGYTFFNYAMGWSRQAPGKERELVAAITWSGGSRYYADSVKGRFTISRVNAKNTVYLQMNSLKPEDTAVYYCAADAITPRDPYVTEKLDYWGQGTQVTVSS	low polyreactivity
QVQLVESGGGLVQAGGSLRLSCAASGITFYRYVMGWYRQAPAKERELVAAITTGDSTSYADSVKGRFTISRDNAKNTVYLQMNSLKPEDTAVYYCAAVYYTALANYDYWGQGTQVTVSS	low polyreactivity
QVQLVESGGRLVQAGGSLRLSCAASGRIFAQYAMGWYRQAPGKERELVAAISGRGRTTYYADSVKGRFTISRDNEKNNVYLQMNSVKPEDTAAYYCAAKSTYVAGDYSGQGTQVTVSS	high polyreactivity
QVLMQESGGGLVQAGGSLRLSCAASGNIFSAGGMGWYRQAPVNERELVAGIGTATSTNYADSVKGRFTFSRDNAKNTVYLQMNSLKREDTAVYYCAAAYYSGLSHWYWGQGTQVTVSS	low polyreactivity
QVQLVESGGGLVQAGGSLRLSCAASGSIFEPYTMGWYRQAPGKERELVAAITGSGGSTFYADSVKGRFTISRDNAKNTVYLQMNSLKPEDTAVYYCNAYAYPYTDVDYWGQGTQVTVSS	low polyreactivity
QVQLVESGGGLVQAGGSLRLSCAASGSTFPHNAMGWYRPAPGKERELVAAISVGGGSTHYADSVKGRFTISRDNAKNTVYLQMNSLKPEDTAVYYCAKDYAYQYSFVTYDYWGQGTQVTVSS	low polyreactivity
QVQLVESGGGLVQAGGSLRLSCAASGFTFWRYALGWYRQAPGKETEFVASITWSGGSTYYADSVKGRFTISRDNAKNTVYLQMNRLQPEDTAVYYCAAVARTSGIKYYYWGQGTQVTVSS	high polyreactivity
QVQLVESGGGLVQAGGSLRLSCAPSGIIFYVYAIGWYRQAPGMERELVADITYGDRTNYADSVNGRFTISRDNAKNTVYLQMNSLKPEDTAVYYCAAKRNVLLGYTDQSLYDYWGQGTQVTVSS	low polyreactivity
QVQLVESGGGLVQAGGSLRLSCADSGHIFFYYTMGWYRQAPGKEREMVAGITIGGSTNYADSVKVRFTISRDNAKNTVYLQMNSLKPEDTAVYYCNVVKYVYIYSYSEYYYWGQGTQVTVSS	low polyreactivity
QVQLVESGGGIVQAGGSLRLSCAASGITFDLYAMGWSRQAPGKERELVAASTYYADSVKWRFTISRDYAKNTVYLQMNSLKPEDTAVYYCITREPVTSDYWGLGTQVTVSS	high polyreactivity
QVQLVESGGGLVQAGGSLRLSCAASGATFWYNAMRWYREAPGKERELVAAITWTGDGTYYADSVKGRFTISRDNAKNTVYLQMNSLKPEDTAVYYCAAAYFQWSTSIVGLDAWYDYWGQGSQVTVSS	low polyreactivity
QVQLEESGGGLVQAGGILRLSCAASGFIIRRNALGLYRKAAGQERELVATIRASGGRTYYADSVKGRFTISRDNAKNTVYLQMNSVKPEDTAVYYCAAFRWYKPHDYWGQGTQVTVSS	high polyreactivity
QVQLVESGGGLVQAGGSLRLSCAASGLIFARNAMGWYRQAPGKETELVAAISKRGGSTYYADSVKGRFTISRDNAKNTVYLQMNSLKPDDTAVYYCNARYFRWWDMGYWGQGTQVNVSS	high polyreactivity
QVQHVESGGGLVQAGGSLRLSCAASGRIFSSNAMGWYRQAPGKERELVASITSGGNTNYADSVKGRFTISRDNAKNTVYLQMNSLKPEDTAVYYCAALSKTRCGYWGQGTQVTVSS	high polyreactivity
QVQLVESGGGLVQAGGSLRLSCAASGRTFGVNAMGWYRQAPGKERELVAVISRSTGSTYYADSVKGRFTISRDNAKNTVYLQMNSLKPEDTAVYYCAAGFWVRGFRRFDYWGQGTQVTVSS	high polyreactivity
QVQLVESGGGSVQAGGSLRLSCAASGIIFWYYTMGWYRQAPGKERELVAAISWSSGITYYADSVKGRFTISRDNAKNTVYLQMNSLKPEDTAVYYCAAAVSPHSEGFGEYNYWGQGTQVTVSS	low polyreactivity
QVQLVESGGGLVQAGGSLRLSCAASGFTFLTNAMGWYRQAPGKERELVAAISSGGNTNYADSVKGRFTISRDNAKNTVYLQMNSLKPEDTAVYYCAADNDYLSSQVSYDYWGQGTQVTVSS	low polyreactivity
QVQLVESGGGLVQAGGSLRLSCAASGSTFFHYARGWYRQAPGKERELVAAISGSGGSTYYADSVKGRFTISRDNAKNTVYLQMNSLKPEDTAVYYCNARVWHYTSRTTFDYWGQGTQVTVSS	low polyreactivity
QVQLVESGGGLVQAGGSLRLSCAASGLTLAPYAMGWYRQAPGKERELVAAITFSGGSTYYADSVKGRLSISRDNAKNTVYLQMNSLKPEDTAVYYCARDTWAYKNGYPYYSWGQGTQVTVSS	low polyreactivity
QVQLVESGGGLVQAGGSLRLSCAASGLIFQGYAMGWYRQAPGKEREFVAVITWSGGSTYYADSVKGRFTISRDNAKNTVYLQMNSLKPEDTAVYYCADDDVWYDFDYWGQGTQVTVSS	low polyreactivity
QVQLLESGGGLVQAGGSLRLSCAASGFIFDIYAMGWYRQAPGKERELVASINWSGGDSTSYADSVKGRFTISRDNAKNTVFLQMYSLKPEDTAVYFCNAEYWSYSGGYPDEYDYWGLGTQVTVSS	low polyreactivity
